Measurements reported in patent publication US5874272A, “Inosine-guanosine kinase” (Kyowa Hakko Kogyo Co., Ltd., priority 1998, dated 1999).

Assays:
[1] = Optimum pH and optimum temperature of the enzyme activity; format: biochemical, Escherichia coli; details: 30° C., 20 minutes; PIPES, HEPES, TAPS, CHES buffers 100 mM
Method: The activity of the inosine-guanosine kinase obtained is determined as follows. A reaction solution (hereafter referred to as reaction solution a) having a composition of 100 mM HEPES buffer (pH 7.2), 10 mM MgSO4, 50 mM KCl, 1 mM ATP and 1 mM inosine is brought into contact with the inosine-guanosine […] During the course of reaction, a part of the reaction solution is subjected to sampling intermittently. After the reaction solution is diluted to 1/20 with 0.2M NaH2 PO4 (adjusted the pH to 2.6 with H3 PO4) to stop the reaction, an amount of 5'-IMP in the stopped reaction solution is quantitatively determined by HPLC. Analysis by HPLC is made by using 0.2M NaH2 PO4 (pH 2.6) at a flow rate of 1 ml/min. as an eluting solution and Asahipak GS-320H (manufactured by Asahi Chemical Co., Ltd.) as a column. Detection of components was made by the absorbance at UV absorbance at 254 nm as an index. Quantitative determination was made by comparing absorbancy with that of the standard. […]
In the method for determination of inosine-guanosine kinase activity described above, the activity is determined by varying the temperature of 0° to 50° C. and 31° to 41° C. […]

Km value determination [2] = substrate: Nc1nc2c(ncn2[C@@H]2O[C@H](CO)[C@@H](O)[C@H]2O)c(=O)[nH]1; experiment: Km value determination; format: biochemical, Escherichia coli; details: other: 2 mM ATP, 10 mM MgSO4, 300 mM KCl, 0.1M HEPES buffer (pH 7.2)
Km value determination [3] = substrate: OC[C@H]1O[C@@H](n2cnc3c(O)ncnc32)[C@H](O)[C@@H]1O; experiment: Km value determination; format: biochemical, Escherichia coli; details: other: 2 mM ATP, 10 mM MgSO4, 300 mM KCl, 0.1M HEPES buffer (pH 7.2)
[4] = pH, temperature and storage stability of the enzyme (residual activity); format: physicochemical, Escherichia coli
Method: This enzyme is treated at 4° C. for 16 hours in an aqueous solution containing 50 mM buffer (CHES; pH 10.0-9.0, TAPS; pH 8.2, HEPES; pH 8.3-7.3 or PIPES; pH 6.6) and 5 mM […] under both conditions in the absence of KCl and in the presence of 250 mM KCl. After the treatment, the activity is determined. Where treated in a pH range of 6.6 to 9.0, the treated enzyme maintains the residual activity of 90% or more than the activity of intact standard enzyme and stably keeps its activity in a pH range of 6.6 to 9.0. The addition of KCl accelerates storage stability.
A reaction solution composed of 20% glycerol, 50 mM Tris-hydrochloride buffer (pH 8), 5 mM β-mercaptoethanol and 100 mM NaCl is contacted with inosine-guanosine kinase in a concentration of about 10 μg protein/ml and treated at a temperature of 26° to 50° C. for 15 minutes to determine the residual activity at each temperature. As the result, since treatment at 40° C. or lower inactivates the enzyme by only 20% or less, the enzyme is stable up to 40° C. In contrast, the activity is rapidly lost by treatment at 50° C.
After 6 g of the -20° C.-stored cells which had been obtained in (6) was suspended in 24 ml of purification buffer [20% glycerol, 50 mM Tris-hydrochloride buffer (pH 8) and 5 mM β-mercaptoethanol], the suspension was disrupted with a homogenizer (manufactured by Brown Biotech Co., Ltd., glass bead diameter of 0.1 mm). The homogenate was centrifuged to give about 20 ml of the supernatant. Protamine sulfate was added to the supernatant in a final concentration of 0.4% followed by centrifugation. Thus high molecular nucleic acid components were removed as precipitates. The resulting supernatant was passed through Sephadex G-50 column which had been previously equilibrated with the purification buffer. The column was eluted with the purification buffer to give about 30 ml of desalted active fraction. After the fraction was passed through DEAE Sepharose column which had been previously equilibrated with the purification buffer, 60 ml of the purification buffer containing 0.1M NaCl was added thereto. Then the desired enzyme was eluted with 200 ml of the purification buffer having an NaCl linear density slope of 0.1M to 0.6M. From the active fractions eluted, 3 ml of the fraction having the highest enzyme concentration was collected. This active fraction was passed through Sephacryl S-200 column and eluted with the purification buffer containing 0.1M NaCl. By gel filtration, the active fraction was collected. Finally 10 ml of purified enzyme (1.4 μg protein/ml) was obtained. This purified enzyme was analyzed by SDS-polyacrylamide electrophoresis but no impurity was detected. The enzyme is stably stored at -20° C. in the purification buffer containing 0.1M NaCl.

B1: inosine-guanosine kinase (Escherichia coli K-12) (protein)
chain: MKFPGKRKSKHYFPVNARDPLLQQFQPENETSAAWVVGIDQTLVDIEAKVDDEFIERYGLSAGHSLVIEDDVAEALYQELKQKNLITHQFAGGTIGNTMHNYSVLADDRSVLLGVMCSNIEIGSYAYRYLCNTSSRTDLNYLQGVDGPIGRCFTLIGESGERTFAISPGHMNQLRAESIPEDVIAGASALVLTSYLVRCKPGEPMPEATMKAIEYAKKYNVPVVLTLGTKFVIAENPQWWQQFLKDHVSILAMNEDEAEALTGESDPLLASDKALDWVDLVLCTAGPIGLYMAGFTEDEAKRKTQHPLLPGAIAEFNQYEFSRAMRHKDCQNPLRVYSHIAPYMGGPEKIMNTNGAGDGALAALLHDITANSYHRSNVPNSSKHKFTWLTYSSLAQVCKYANRVSYQVLNQHSPRLTRGLPEREDSLEESYWDR
notes: made in house; host or cells: Escherichia coli
optimum pH [1]: 6.9-8.2 | Km (Km value determination [2]): 6.1 µM | Km (Km value determination [3]): 2100 µM | residual activity after pH treatment ([4]; 4° C., 16 hours, pH range of 6.6 to 9.0, with or without 250 mM KCl, versus intact standard enzyme): ≥ 90% | temperature up to which the enzyme is stable ([4]; 15 minutes treatment, pH 8): up to 40 °C | storage stability (in words) ([4]; -20° C. in purification buffer containing 0.1M NaCl): stably stored | inactivation by heat treatment ([4]; treatment at 40° C. or lower, 15 minutes, pH 8): ≤ 20% | activity after heat treatment (in words) ([4]; treatment at 50° C., 15 minutes): rapidly lost
